The values that follow come from patent publication US20220235103A1 (Molecular Partners, published 2022).

The target of test [1] is T1, bio-S ecto Sino (SARS-CoV-2, UniProt P0DTC2 16-1213).
T1 construct: also called SARS-CoV-2 Spike Protein (Sino Biologics, cat. 40589-V08B1); SARS-Cov-2 S protein (S1+S2 ECT, His-tag)
Nature of the test: single trace.

Test [2] has as its target bio-RBD Fc Acro (SARS-CoV-2). Briefly: SPR, single trace. For orientation: Surface plasmon resonance follows binding to a sensor surface in real time, without labels.
In test [3] the target is T1, bio-S ecto Sino.
For test [4], the target named is T1, bio-S ecto Sino. The source holds these as a separate data set.
The target of test [5] is T1, bio-S ecto Sino. The source holds these as a separate data set.
In test [6] the target is T2, bio-S1 Acro (SARS-CoV-2, UniProt P0DTC2 16-685). Nature of the test: SPR.
Test [7] addresses T3, SARS-CoV-2 (COVID-19) S protein RBD (cat. SPD-C5255, lot. BV3539b-203FF1-203K) (SARS-CoV-2, UniProt P0DTC2 319-537).
Test [8] has as its target T4, S ecto U (SARS-CoV-2, UniProt P0DTC2 16-1213).
T4 construct: also called ecto-domain of the spike protein
Briefly: SPR, ProteOn XPR36, fitted curves (FIG. 9c).

The target in test [9] is T2, bio-S1 Acro. Nature of the test: SPR, single trace.
The target of test [10] is T4, S ecto U.
In test [11] the target is T3, SARS-CoV-2 (COVID-19) S protein RBD …. The source holds these as a separate data set.

Like-named read-outs stand apart in the source and are kept apart here.

B1: vS07_07F02 (designed binder)
chain: MRGSHHHHHHGSDLGLKLLTAAKQGQDDEVRILLAAGADVNAKDYRGLTPLHYAAAIGHLEIVEVLLKAGADVNAKDQYGATPLHVAAYIGHLEIVEVLLKAGADVNAQDFSGSTPADLAAEEGHEDIAEVLQKAA
notes: also called RN1
B1 returned a dissociation constant Kd in test [1] of 14 nM. In addition, in test [2], the binding result was “binds”.

B2: vS07_23E04 (designed binder)
chain: MRGSHHHHHHGSDLGKKLLQAARAGQLDEVRELLKAGADVNAKDQEGITPLHVAAHQGHLEIVEVLLKAGADVNAKDVWGRTPLHLAAWRGHLEIVEVLLKAGADVNAKDHAGATPLHAAALSGHLEIVEVLLKAGADVNAQDKSGKTPADLAARAGHQDIAEVLQKAA
notes: also called R3c
In test [3], B2 returned an off-rate constant (koff) of 0.000234 s⁻¹ and an on-rate (kon) of 2.59e+06 M⁻¹ s⁻¹. For the same molecule, the binding result in test [2] was “binds”. This molecule also returned a Kd in test [4] of 0.09 nM.

B3: vS07_12C06 (designed binder)
chain: MRGSHHHHHHGSDLGKKLLQAARAGQLDEVRELLKAGADVNAKDREGKTPLHVAAQEGHLEIVEVLLKAGADVNAKDVWGRTPLHLAAWIGHLEIVEVLLKAGADVNAKDVSGATPLHAAALHGHLEIVEVLLNAGADVNAQDKSGKTPADLAARAGHQDIAEVLQKAA
notes: also called R1b; Rb1
Regarding B3, in test [5], the koff was 2.64e-05 s⁻¹ and the kon was found to be 1.26e+06 M⁻¹ s⁻¹. Further, in test [2], the binding result is given as “binds”. The dissociation constant Kd in test [4] amounted to 0.021 nM.

B4: vS07_29B10 (designed binder)
chain: MRGSHHHHHHGSDLGKKLLQAARAGQLDEVRELLKAGADVNAKDREGITPLHLAAQHGHLEIVEVLLKAGADVNAKDVWGRTPLHLAAWQGHLEIVEVLLKAGADVNAKDLAGATPLHVAALYGHLEIVEVLLKAGADVNAQDKSGKTPADLAARAGHQDIAEVLQKAA
notes: also called R3b
On to B4, for which, in test [3], the koff was 0.000148 s⁻¹ and the kon was 1.82e+06 M⁻¹ s⁻¹. Further, the binding result in test [2] is recorded as “binds”. Binding in test [4] was put at a Kd of 0.081 nM.

B5: vS07_22E12 (designed binder)
chain: MRGSHHHHHHGSDLGKKLLQAARAGQLDEVRELLKAGADVNAKDKIGVTPLHIAAEVGHLEIVEVLLKAGADVNAKDVWGRTPLHLAAWSGHLEIVEVLVKAGADVNAKDIAGATPLHAAALFGHLEIVEVLLKVGADVNAQDKSGKTPADLAARAGHQDIAEVLQKAA
notes: also called R3a
In test [3], B5 displayed a koff of 0.000308 s⁻¹ and a kon of 1.3e+06 M⁻¹ s⁻¹. Moreover, the binding result in test [2] was “binds”. In test [4], this molecule returned an equilibrium dissociation constant (Kd) of 0.24 nM.

B6: vS07_06F12 (designed binder)
chain: MRGSHHHHHHGSDLGKKLLQAARAGQLDEVRELLKAGADVNAKDREGWTPLHLAAHQGHLEIVEVLLKAGADVNAKDVFGRTPLHLAAWVGHLEIVEVLLKAGADVNAKDVSGATPLHPAAIYGHLEIVEVLLKAGADVNAQDKSGKTPADLAARAGHQDIAEVLQKAA
notes: also called R1a
In test [5], B6 had a koff of 0.000243 s⁻¹ and a kon of 963000 M⁻¹ s⁻¹. In addition, the binding result in test [2] is on record as “binds”. The same molecule registered a dissociation constant Kd in test [4] of 0.25 nM.

B7: vS07_19G10 (designed binder)
chain: MRGSHHHHHHGSDLGNKLLDAAWVGQDDEVRILLAAGADVNAKDWQGETPLHLAATKGHLEIVEVLLKAGADVNAKDVVGYTPLHVAASQGHLEIVEVLLKAGADVNAQDVHGYTPADLAAQAGHEDIAEVLQKAA
notes: also called R2a
With B7, in test [5], the koff was 0.000179 s⁻¹ and the kon worked out at 693000 M⁻¹ s⁻¹. The binding result in test [2] is “binds”. The affinity in test [4], expressed as Kd, was 0.26 nM.

B8: vS07_08F10v47 (designed binder)
chain: MRGSHHHHHHGSDLGKKLLLAARAGQLDEVRILLKAGADVNAKDVFGQTPLHTAAVAGHLEIVEVLLKAGADVNAKDKVGYTPLHLAAQSGHLEIVEVLLKAGADVNAKDVVGVTPADLAAFEGHQDIAEVLQKAA
On to B8, for which the binding result in test [6] is on record as “binds”.

B9: ALE033 (designed binder)
chain: MRGSHHHHHHGSDLGKKLLEAARAGQDDEVRELLKAGADVNAKDYFSHTPLHLAARNGHLKIVEVLLKAGADVNAKDFAGKTPLHLAANEGHLEIVEVLLKAGADVNAQDIFGKTPADIAADAGHEDIAEVLQKAAGSPTPTPTTPTPTPTTPTPTPTGSDLGKKLLEAARAGQDDEVRELLKAGADVNAKDYFSHTPLHLAARNGHLKIVEVLLKAGADVNAKDFAGKTPLHLAANEGHLEIVEVLLKAGADVNAQDIFGKTPADIAADAGHEDIAEVLQKAAGSPTPTPTTPTPTPTTPTPTPTGSDLGKKLLQAARAGQLDEVRELLKAGADVNAKDREGITPLHLAAQHGHLEIVEVLLKAGADVNAKDVWGRTPLHLAAWQGHLEIVEVLLKAGADVNAKDLAGATPLHVAALYGHLEIVEVLLKAGADVNAQDKSGKTPADLAARAGHQDIAEVLQKAAGSPTPTPTTPTPTPTTPTPTPTGSDLGKKLLQAARAGQLDEVRELLKAGADVNAKDREGKTPLHVAAQEGHLEIVEVLLKAGADVNAKDVWGRTPLHLAAWIGHLEIVEVLLKAGADVNAKDVSGATPLHAAALHGHLEIVEVLLNAGADVNAQDKSGKTPADLAARAGHQDIAEVLQKAAGSPTPTPTTPTPTPTTPTPTPTGSDLGKKLLQAARAGQLDEVRELLKAGADVNAKDREGITPLHLAAQHGHLEIVEVLLKAGADVNAKDVWGRTPLHLAAWQGHLEIVEVLLKAGADVNAKDLAGATPLHVAALYGHLEIVEVLLKAGADVNAQDKSGKTPADLAARAGHQDIAEVLQKAA
For B9, the kon in test [7] worked out at 1.54e+06 M⁻¹ s⁻¹.

B10: vS07_08F10 (designed binder)
chain: MRGSHHHHHHGSDLGHKLLLAAQAGQDDEVRILLAAGADVNAKDVFGQTPLHVAAVAGHLEIVEVLLKAGADVNAKDSIGYTPLHHAARVGHLEIVEVLLKAGADVNAQDWIGITPADLAAFEGHEDIAEVLQKAA
notes: also called S1a
In the case of B10, binding in [8] was characterised by a dissociation constant (Kd) of 1.2 nM. The Kd in [9] stood at 20 nM. In addition, in test [10], the koff was 0.00086 s⁻¹ and the kon turned out to be 695000 M⁻¹ s⁻¹.

B11: vS07_08F10v27 (designed binder)
chain: MRGSHHHHHHGSDLGKKLLLAARAGQLDEVRILLKAGADVNAKDVFGQTPLHVAAVAGHLEIVEVLLKAGADVNAKDSIGYTPLHHAARVGHLEIVEVLLKAGADVNAKDWIGITPADLAAFEGHQDIAEVLQKAA
As to B11, the binding result in [6] is on record as “binds”.

B12: vS07_14G03 (designed binder)
chain: MRGSHHHHHHGSDLGQKLLHAAQYGQDDEVRILLAAGADVNAKDKQGNTPLHIAAFHGHLEIVEVLLKAGADVNAKDQWGLTPLHLAAAWGHLEIVEVLLKAGADVNAQDNYGQTPADLAAESGHEDIAEVLQKAA
notes: also called S2a
On to B12, for which, in test [8], the affinity, expressed as Kd, was 0.79 nM. Further, in test [10], the koff was found to be 0.00352 s⁻¹ and the on-rate constant (kon) is 4.49e+06 M⁻¹ s⁻¹.

B13: vS07_26C03 (designed binder)
chain: MRGSHHHHHHGSDLGWKLLWAAQVGQDDEVRILLAAGADVNAKDDLGWTPLHIAAWVGHLEIVEVLLKAGADVNAKDFTGRTPLHHAATEGHLEIVKVLLKAGADVNAQDDVGHTPADLAALWGHEDIAEVLQKAA
notes: also called RN2
Consider B13, for which the binding result in [2] is given as “binds”. Further, in [4], the Kd was 23 nM.

B14: ALE030 (designed binder)
chain: MRGSHHHHHHGSDLGKKLLEAARAGQDDEVRELLKAGADVNAKDYFSHTPLHLAARNGHLKIVEVLLKAGADVNAKDFAGKTPLHLAANEGHLEIVEVLLKAGADVNAQDIFGKTPADIAADAGHEDIAEVLQKAAGSPTPTPTTPTPTPTTPTPTPTGSDLGKKLLEAARAGQDDEVRELLKAGADVNAKDYFSHTPLHLAARNGHLKIVEVLLKAGADVNAKDFAGKTPLHLAANEGHLEIVEVLLKAGADVNAQDIFGKTPADIAADAGHEDIAEVLQKAAGSPTPTPTTPTPTPTTPTPTPTGSDLGKKLLQAARAGQLDEVRELLKAGADVNAKDREGITPLHLAAQHGHLEIVEVLLKAGADVNAKDVWGRTPLHLAAWQGHLEIVEVLLKAGADVNAKDLAGATPLHVAALYGHLEIVEVLLKAGADVNAQDKSGKTPADLAARAGHQDIAEVLQKAAGSPTPTPTTPTPTPTTPTPTPTGSDLGNKLLDAAWVGQDDEVRILLAAGADVNAKDWQGETPLHLAATKGHLEIVEVLLKAGADVNAKDVVGYTPLHVAASQGHLEIVEVLLKAGADVNAQDVHGYTPADLAAQAGHEDIAEVLQKAAGSPTPTPTTPTPTPTTPTPTPTGSDLGKKLLQAARAGQLDEVRELLKAGADVNAKDREGKTPLHVAAQEGHLEIVEVLLKAGADVNAKDVWGRTPLHLAAWIGHLEIVEVLLKAGADVNAKDVSGATPLHAAALHGHLEIVEVLLNAGADVNAQDKSGKTPADLAARAGHQDIAEVLQKAA
In test [11], B14 registered a Kd of 0.000142 nM, a koff of 1.15e-07 s⁻¹ and an on-rate (kon) of 810000 M⁻¹ s⁻¹.

In general, Kd refers to the free concentration of one partner at which half of the binding sites on the other are occupied at equilibrium, for simple one-to-one binding. In general, koff refers to a measure of how fast the partners let go of each other. The term kon denotes the rate constant with which the complex forms.
